Measured values reported in US20230272119A1 (MARENGO THERAPEUTICS, published 2023).

Tests used:
[1] = target: T1, α-IGF1R heavy-LgBiT (SEQ ID NO: 119); test: NanoBiT, HC-LgBiT:LC-SmBiT:competing LC 1:1:1; competing lambda LC m72 (SEQ ID NO: 163)
T1 construct: VH-CH1-linker-LgBiT; germline VH3-21*01

[2] = target: T1, α-IGF1R heavy-LgBiT (SEQ ID NO: 119); test: NanoBiT, HC-LgBiT:LC-SmBiT:competing LC 1:1:1; competing lambda LC m63 (SEQ ID NO: 154)
[3] = target: T1, α-IGF1R heavy-LgBiT (SEQ ID NO: 119); test: NanoBiT, HC-LgBiT:LC-SmBiT:competing LC 1:1:1; competing lambda LC m69 (SEQ ID NO: 160)
[4] = target: T1, α-IGF1R heavy-LgBiT (SEQ ID NO: 119); test: NanoBiT, HC-LgBiT:LC-SmBiT:competing LC 1:1:1; competing lambda LC m51 (SEQ ID NO: 142)
[5] = target: T2, α-IL23 heavy-LgBiT (SEQ ID NO: 140); test: NanoBiT, HC-LgBiT:LC-SmBiT:competing LC 1:1:1; competing kappa LC m6 (SEQ ID NO: 97)
T2 construct: VH-CH1-linker-LgBiT; germline VH5-51*01

[6] = target: T2, α-IL23 heavy-LgBiT (SEQ ID NO: 140); test: NanoBiT, HC-LgBiT:LC-SmBiT:competing LC 1:1:1; competing kappa LC m33 (SEQ ID NO: 124)
[7] = target: T2, α-IL23 heavy-LgBiT (SEQ ID NO: 140); test: NanoBiT, HC-LgBiT:LC-SmBiT:competing LC 1:1:1; competing kappa LC m27 (SEQ ID NO: 118)
[8] = target: T2, α-IL23 heavy-LgBiT (SEQ ID NO: 140); test: NanoBiT, HC-LgBiT:LC-SmBiT:competing LC 1:1:1; competing kappa LC m24 (SEQ ID NO: 115)
[9] = target: T3, α-CD221 heavy-LgBiT (SEQ ID NO: 134); test: NanoBiT, HC-LgBiT:LC-SmBiT:competing LC 1:1:1; competing kappa LC m15 (SEQ ID NO: 106)
T3 construct: VH-CH1-linker-LgBiT; germline VH1-69*01

[10] = target: T3, α-CD221 heavy-LgBiT (SEQ ID NO: 134); test: NanoBiT, HC-LgBiT:LC-SmBiT:competing LC 1:1:1; competing kappa LC m21 (SEQ ID NO: 112)
[11] = target: T3, α-CD221 heavy-LgBiT (SEQ ID NO: 134); test: NanoBiT, HC-LgBiT:LC-SmBiT:competing LC 1:1:1; competing kappa LC m42 (SEQ ID NO: 133)
[12] = target: T3, α-CD221 heavy-LgBiT (SEQ ID NO: 134); test: NanoBiT, HC-LgBiT:LC-SmBiT:competing LC 1:1:1; competing kappa LC m33 (SEQ ID NO: 124)
[13] = target: T4, α-death receptor 5 heavy-LgBiT (SEQ ID NO: 137); test: NanoBiT, HC-LgBiT:LC-SmBiT:competing LC 1:1:1; competing kappa LC m18 (SEQ ID NO: 109)
T4 construct: VH-CH1-linker-LgBiT; germline VH3-20*01

[14] = target: T4, α-death receptor 5 heavy-LgBiT (SEQ ID …); test: NanoBiT, HC-LgBiT:LC-SmBiT:competing LC 1:1:1; competing kappa LC m36 (SEQ ID NO: 127)
[15] = target: T4, α-death receptor 5 heavy-LgBiT (SEQ ID …); test: NanoBiT, HC-LgBiT:LC-SmBiT:competing LC 1:1:1; competing kappa LC m12 (SEQ ID NO: 103)
[16] = target: T4, α-death receptor 5 heavy-LgBiT (SEQ ID …); test: NanoBiT, HC-LgBiT:LC-SmBiT:competing LC 1:1:1; competing kappa LC m33 (SEQ ID NO: 124)
[17] = target: T5, α-IL6R heavy-LgBiT (SEQ ID NO: 125); test: NanoBiT, HC-LgBiT:LC-SmBiT:competing LC 1:1:1; competing lambda LC m45 (SEQ ID NO: 136)
T5 construct: VH-CH1-linker-LgBiT; germline VH3-9*01

[18] = target: T5, α-IL6R heavy-LgBiT (SEQ ID NO: 125); test: NanoBiT, HC-LgBiT:LC-SmBiT:competing LC 1:1:1; competing lambda LC m48 (SEQ ID NO: 139)
[19] = target: T5, α-IL6R heavy-LgBiT (SEQ ID NO: 125); test: NanoBiT, HC-LgBiT:LC-SmBiT:competing LC 1:1:1; competing lambda LC m66 (SEQ ID NO: 157)
[20] = target: T5, α-IL6R heavy-LgBiT (SEQ ID NO: 125); test: NanoBiT, HC-LgBiT:LC-SmBiT:competing LC 1:1:1; competing lambda LC m63 (SEQ ID NO: 154)
[21] = target: T5, α-IL6R heavy-LgBiT (SEQ ID NO: 125); test: NanoBiT, HC-LgBiT:LC-SmBiT:competing LC 1:1:1; competing lambda LC m54 (SEQ ID NO: 145)
[22] = target: T6, α-IFN heavy-LgBiT (SEQ ID NO: 107); test: NanoBiT, HC-LgBiT:LC-SmBiT:competing LC 1:1:1; competing lambda LC m48 (SEQ ID NO: 139)
T6 construct: VH-CH1-linker-LgBiT; germline VH5-51*01

[23] = target: T6, α-IFN heavy-LgBiT (SEQ ID NO: 107); test: NanoBiT, HC-LgBiT:LC-SmBiT:competing LC 1:1:1; competing lambda LC m72 (SEQ ID NO: 163)
[24] = target: T6, α-IFN heavy-LgBiT (SEQ ID NO: 107); test: NanoBiT, HC-LgBiT:LC-SmBiT:competing LC 1:1:1; competing lambda LC m69 (SEQ ID NO: 160)
[25] = target: T7, α-neuropilin 1 heavy-LgBiT (SEQ ID NO: 131); test: NanoBiT, HC-LgBiT:LC-SmBiT:competing LC 1:1:1; competing lambda LC m45 (SEQ ID NO: 136)
T7 construct: VH-CH1-linker-LgBiT; germline VH3-66*01

[26] = target: T7, α-neuropilin 1 heavy-LgBiT (SEQ ID NO: …); test: NanoBiT, HC-LgBiT:LC-SmBiT:competing LC 1:1:1; competing lambda LC m48 (SEQ ID NO: 139)
[27] = target: T7, α-neuropilin 1 heavy-LgBiT (SEQ ID NO: …); test: NanoBiT, HC-LgBiT:LC-SmBiT:competing LC 1:1:1; competing lambda LC m66 (SEQ ID NO: 157)
[28] = target: T7, α-neuropilin 1 heavy-LgBiT (SEQ ID NO: …); test: NanoBiT, HC-LgBiT:LC-SmBiT:competing LC 1:1:1; competing lambda LC m72 (SEQ ID NO: 163)
[29] = target: T7, α-neuropilin 1 heavy-LgBiT (SEQ ID NO: …); test: NanoBiT, HC-LgBiT:LC-SmBiT:competing LC 1:1:1; competing lambda LC m63 (SEQ ID NO: 154)
[30] = target: T7, α-neuropilin 1 heavy-LgBiT (SEQ ID NO: …); test: NanoBiT, HC-LgBiT:LC-SmBiT:competing LC 1:1:1; competing lambda LC m69 (SEQ ID NO: 160)
[31] = target: T7, α-neuropilin 1 heavy-LgBiT (SEQ ID NO: …); test: NanoBiT, HC-LgBiT:LC-SmBiT:competing LC 1:1:1; competing lambda LC m54 (SEQ ID NO: 145)
[32] = target: T7, α-neuropilin 1 heavy-LgBiT (SEQ ID NO: …); test: NanoBiT, HC-LgBiT:LC-SmBiT:competing LC 1:1:1; competing lambda LC m51 (SEQ ID NO: 142)

B1: α-IGF1R light-SmBiT (SEQ ID NO: 120) (other)
light: EIVLTQSPGTLSVSPGERATLSCRASQSIGSSLHWYQQKPGQAPRLLIKYASQSLSGIPDRFSGSGSGTDFTLTISRLEPEDFAVYYCHQSSRLPHTFGQGTKVEIKRTVAAPSVFIFPPSDEQLKSGTASVVCLLNNFYPREAKVQWKVDNALQSGNSQESVTEQDSKDSTYSLSSTLTLSKADYEKHKVYACEVTHQGLSSPVTKSFNRGECGSSGGGGSGGGGSSGGVTGYRLFEEIL
notes: kappa light chain-linker-SmBiT; germline Vk3-20*01
Percent pairing [1]: 100% | Percent pairing [2]: 99% | Percent pairing [3]: 100% | Percent pairing [4]: 95%

B2: α-IL23 light-SmBiT (SEQ ID NO: 141) (other)
light: QSVLTQPPSVSGAPGQRVTISCTGSSSNIGSGYDVHWYQQLPGTAPKLLIYGNSKRPSGVPDRFSGSKSGTSASLAITGLQSEDEADYYCASWTDGLSLVVFGGGTKLTVLGQPKANPTVTLFPPSSEELQANKATLVCLISDFYPGAVTVAWKADGSPVKAGVETTKPSKQSNNKYAASSYLSLTPEQWKSHRSYSCQVTHEGSTVEKTVAPTECSGSSGGGGSGGGGSSGGVTGYRLFEEIL
notes: lambda light chain-linker-SmBiT; germline Vl1-40*01
Percent pairing [5]: 96% | Percent pairing [6]: 100% | Percent pairing [7]: 91% | Percent pairing [8]: 93%

B3: α-CD221 light-SmBiT (SEQ ID NO: 135) (other)
light: SSELTQDPAVSVALGQTVRITCQGDSLRSYYATWYQQKPGQAPILVIYGENKRPSGIPDRFSGSSSGNTASLTITGAQAEDEADYYCKSRDGSGQHLVFGGGTKLTVLGQPKANPTVTLFPPSSEELQANKATLVCLISDFYPGAVTVAWKADGSPVKAGVETTKPSKQSNNKYAASSYLSLTPEQWKSHRSYSCQVTHEGSTVEKTVAPTECSGSSGGGGSGGGGSSGGVTGYRLFEEIL
notes: lambda light chain-linker-SmBiT; germline Vl3-19*01
Percent pairing [9]: 96% | Percent pairing [10]: 95% | Percent pairing [11]: 100% | Percent pairing [12]: 100%

B4: α-death receptor 5 light-SmBiT (SEQ ID NO: 138) (other)
light: SSELTQDPAVSVALGQTVRITCSGDSLRSYYASWYQQKPGQAPVLVIYGANNRPSGIPDRFSGSSSGNTASLTITGAQAEDEADYYCNSADSSGNHVVFGGGTKLTVLGQPKANPTVTLFPPSSEELQANKATLVCLISDFYPGAVTVAWKADGSPVKAGVETTKPSKQSNNKYAASSYLSLTPEQWKSHRSYSCQVTHEGSTVEKTVAPTECSGSSGGGGSGGGGSSGGVTGYRLFEEIL
notes: as for B3
Percent pairing [13]: 100% | Percent pairing [14]: 95% | Percent pairing [15]: 100% | Percent pairing [16]: 100%

B5: α-IL6R light-SmBiT (SEQ ID NO: 126) (other)
light: DIQMTQSPSSVSASVGDRVTITCRASQGISSWLAWYQQKPGKAPKLLIYGASSLESGVPSRFSGSGSGTDFTLTISSLQPEDFASYYCQQANSFPYTFGQGTKLEIKRTVAAPSVFIFPPSDEQLKSGTASVVCLLNNFYPREAKVQWKVDNALQSGNSQESVTEQDSKDSTYSLSSTLTLSKADYEKHKVYACEVTHQGLSSPVTKSFNRGECGSSGGGGSGGGGSSGGVTGYRLFEEIL
notes: kappa light chain-linker-SmBiT; germline Vk1-12*01
Percent pairing [17]: 100% | Percent pairing [18]: 99% | Percent pairing [19]: 100% | Percent pairing [20]: 84% | Percent pairing [21]: 100%

B6: α-IFN light-SmBiT (SEQ ID NO: 108) (other)
light: EIVLTQSPGTLSLSPGERATLSCRASQSVSSSFFAWYQQKPGQAPRLLIYGASSRATGIPDRLSGSGSGTDFTLTITRLEPEDFAVYYCQQYDSSAITFGQGTRLEIKRTVAAPSVFIFPPSDEQLKSGTASVVCLLNNFYPREAKVQWKVDNALQSGNSQESVTEQDSKDSTYSLSSTLTLSKADYEKHKVYACEVTHQGLSSPVTKSFNRGECGSSGGGGSGGGGSSGGVTGYRLFEEIL
notes: as for B1
Percent pairing [22]: 100% | Percent pairing [23]: 100% | Percent pairing [24]: 80%

B7: α-neuropilin 1 light-SmBiT (SEQ ID NO: 132) (other)
light: DIQMTQSPSSLSASVGDRVTITCRASQYFSSYLAWYQQKPGKAPKLLIYGASSRASGVPSRFSGSGSGTDFTLTISSLQPEDFATYYCQQYLGSPPTFGQGTKVEIKRTVAAPSVFIFPPSDEQLKSGTASVVCLLNNFYPREAKVQWKVDNALQSGNSQESVTEQDSKDSTYSLSSTLTLSKADYEKHKVYACEVTHQGLSSPVTKSFNRGECGSSGGGGSGGGGSSGGVTGYRLFEEIL
notes: kappa light chain-linker-SmBiT; germline Vk1-39*01
Percent pairing [25]: 100% | Percent pairing [26]: 100% | Percent pairing [27]: 100% | Percent pairing [28]: 100% | Percent pairing [29]: 100% | Percent pairing [30]: 100% | Percent pairing [31]: 100% | Percent pairing [32]: 84%
